Experimental data published in patent EP4299124A1 (UNIVERSITE DE MONTPELLIER, dated 2024).

What was measured:
[1] = molecular target: T1, rat mGlu2 SNAP-tagged receptor (rat, UniProt P31421 19-872, SNAP tag labelled with SNAP-Lumi4-Tb); test: cell-based or functional assay
[2] = molecular target: T1, rat mGlu2 SNAP-tagged receptor; test: TR-FRET on HEK-293 cells with SNAP-tagged rat mGlu2, anti-6His-d2; inactive conformation
[3] = molecular target: T1, rat mGlu2 SNAP-tagged receptor; test: TR-FRET on HEK-293 cells with SNAP-tagged rat mGlu2, anti-6His-d2; active conformation

T1 sequence (P31421 19-872): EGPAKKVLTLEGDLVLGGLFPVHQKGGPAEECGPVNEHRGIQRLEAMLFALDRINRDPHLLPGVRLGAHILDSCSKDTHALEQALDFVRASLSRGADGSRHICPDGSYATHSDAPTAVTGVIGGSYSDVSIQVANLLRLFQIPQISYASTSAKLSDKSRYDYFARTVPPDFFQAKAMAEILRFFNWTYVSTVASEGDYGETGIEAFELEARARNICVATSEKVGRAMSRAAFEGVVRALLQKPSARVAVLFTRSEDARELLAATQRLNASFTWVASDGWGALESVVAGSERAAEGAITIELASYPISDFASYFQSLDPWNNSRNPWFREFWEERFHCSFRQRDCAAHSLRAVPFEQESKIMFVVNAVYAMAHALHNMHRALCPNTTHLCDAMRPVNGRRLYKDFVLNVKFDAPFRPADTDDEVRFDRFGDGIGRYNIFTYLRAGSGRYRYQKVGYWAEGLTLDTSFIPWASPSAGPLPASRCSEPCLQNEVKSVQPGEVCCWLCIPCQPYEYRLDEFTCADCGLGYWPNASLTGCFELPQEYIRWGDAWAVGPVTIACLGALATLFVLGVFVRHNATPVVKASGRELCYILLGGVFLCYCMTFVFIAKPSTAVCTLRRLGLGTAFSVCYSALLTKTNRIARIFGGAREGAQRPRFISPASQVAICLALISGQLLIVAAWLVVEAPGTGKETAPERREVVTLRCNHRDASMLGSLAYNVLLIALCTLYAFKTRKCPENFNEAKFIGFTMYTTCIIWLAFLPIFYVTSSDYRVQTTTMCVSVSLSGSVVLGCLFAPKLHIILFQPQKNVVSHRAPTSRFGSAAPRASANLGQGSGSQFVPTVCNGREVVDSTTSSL

Row | Binder | PAM effect G protein coupling, pEC50 [1] [pEC50] | pKd [2] [pKd] | pKd [3] [pKd]
1 | biparatopic IGF1202 (construct IGF1168-linker sequence L1-IGF1159) (bispecific antibody) QVQLVQSGGGLVQAGGSLRLSCAASVRFFSINTMGWYRQAPGKQRELVADITSSGSTNYADSGKGRFTISRDNAKNTVYLQMNRLKPEDTAVYYCHADYKYTTHNTAWGQGTQVTVSSEPKIPQPQPKPQPQPQPQPQPKPQPKPEPQVQLVQSGGGLVQAGGSLRLSCAASGRTFSSFAMAWFRQAPGKEREFVAAISWSGSTGHADSVKGRFTITRDNAKNTVFLQMNSLKPEDTAVYYCALGKGSSYYYSPSGYDYWGQGTQVTVSSLEHHHHHH | 8.81 | 8.87 | 9.27
2 | IGF-1251 (IGF-1159 GS IGF-1168) (bispecific antibody) QVQLVQSGGGLVQAGGSLRLSCAASGRTFSSFAMAWFRQAPGKEREFVAAISWSGSTGHADSVKGRFTITRDNAKNTVFLQMNSLKPEDTAVYYCALGKGSSYYYSPSGYDYWGQGTQVTVSSGGGGSGGGGSGGGGSQVQLVQSGGGLVQAGGSLRLSCAASVRFFSINTMGWYRQAPGKQRELVADITSSGSTNYADSGKGRFTISRDNAKNTVYLQMNRLKPEDTAVYYCHADYKYTTHNTAWGQGTQVTVSS | 7.65 | 8.54 | 8.99
3 | IGF-1262 (IGF-1168 HcAb IGF-1168) (VHH, Used His-tagged in the assay) QVQLVQSGGGLVQAGGSLRLSCAASVRFFSINTMGWYRQAPGKQRELVADITSSGSTNYADSGKGRFTISRDNAKNTVYLQMNRLKPEDTAVYYCHADYKYTTHNTAWGQGTQVTVSSEPKIPQPQPKPQPQPQPQPQPKPQPKPEPQVQLVQSGGGLVQAGGSLRLSCAASVRFFSINTMGWYRQAPGKQRELVADITSSGSTNYADSGKGRFTISRDNAKNTVYLQMNRLKPEDTAVYYCHADYKYTTHNTAWGQGTQVTVSS | 7.2 |  | 8.23
4 | IGF-1159 nanobody (VHH) VHH: QVQLVQSGGGLVQAGGSLRLSCAASGRTFSSFAMAWFRQAPGKEREFVAAISWSGSTGHADSVKGRFTITRDNAKNTVFLQMNSLKPEDTAVYYCALGKGSSYYYSPSGYDYWGQGTQVTVSS | 6.96 |  | 8.46

Second part, the binder after the results:

Row | PAM effect G protein coupling, pEC50 [1] [pEC50] | pKd [2] [pKd] | pKd [3] [pKd] | Binder
5 | 8.25 | 8.95 | 9.34 | IGF-1201 (IGF-1168 GS IGF-1159) (bispecific antibody) QVQLVQSGGGLVQAGGSLRLSCAASVRFFSINTMGWYRQAPGKQRELVADITSSGSTNYADSGKGRFTISRDNAKNTVYLQMNRLKPEDTAVYYCHADYKYTTHNTAWGQGTQVTVSSGGGGSGGGGSGGGGSQVQLVQSGGGLVQAGGSLRLSCAASGRTFSSFAMAWFRQAPGKEREFVAAISWSGSTGHADSVKGRFTITRDNAKNTVFLQMNSLKPEDTAVYYCALGKGSSYYYSPSGYDYWGQGTQVTVSS
6 | 7.94 | 8.49 | 8.77 | IGF-1252 (IGF-1159 HcAb IGF-1168) (bispecific antibody) QVQLVQSGGGLVQAGGSLRLSCAASGRTFSSFAMAWFRQAPGKEREFVAAISWSGSTGHADSVKGRFTITRDNAKNTVFLQMNSLKPEDTAVYYCALGKGSSYYYSPSGYDYWGQGTQVTVSSEPKIPQPQPKPQPQPQPQPQPKPQPKPEPQVQLVQSGGGLVQAGGSLRLSCAASVRFFSINTMGWYRQAPGKQRELVADITSSGSTNYADSGKGRFTISRDNAKNTVYLQMNRLKPEDTAVYYCHADYKYTTHNTAWGQGTQVTVSS
7 | 7.62 |  | 8.51 | IGF-1261 (IGF-1168 GS IGF-1168) (VHH, Used His-tagged in the assay) QVQLVQSGGGLVQAGGSLRLSCAASVRFFSINTMGWYRQAPGKQRELVADITSSGSTNYADSGKGRFTISRDNAKNTVYLQMNRLKPEDTAVYYCHADYKYTTHNTAWGQGTQVTVSSGGGGSGGGGSGGGGSQVQLVQSGGGLVQAGGSLRLSCAASVRFFSINTMGWYRQAPGKQRELVADITSSGSTNYADSGKGRFTISRDNAKNTVYLQMNRLKPEDTAVYYCHADYKYTTHNTAWGQGTQVTVSS
